# From US20210380680A1 (ZLLP, published 2021)
# Where two headings read alike, the source gives them in different places.
# B1: chimeric 282A12F3 (xi282A12F3) (antibody, human IgG1, kappa, V domains shown)
# VH: QVQLKESGPVLVQPSQTLSLTCTVAGFSLTSYNVYWVRQPPGKGLEWMGVIWNTGATRYNSTLKSRLSISKDTSKSQVFLKMNSLQTEDTATYYCARDSAMPAIPFAYWGQGTLVTVSS
# VL: DIVMTQSPSSLAVSAGETVTINCKSSQSLFGSVRQKNYLAWYQQKPGQSPKLLIYLASTRESGVPDRFIGSGSGTDFTLTISSVQAEDLAKYYCQQYYDIPWTFGGGTKLELKR
# notes: chimeric human IgG1
# B2: 282A12F3 (rat hybridoma antibody) (antibody, V domains shown)
# VH: B1 VH
# VL: DIVMTQSPSSLAVSAGETVTINCKSSQSLFGSVRQKNYLAWYQQKPGQSPKLLIYLASTRESGVPDRFIGSGSGTDFTLTISSVQAEDLAKYYCQQYYDIPWTFGGGTKLELK
# notes: purified rat IgG from hybridoma
# B3: 413H9F8-cp2 (antibody, V domains shown)
# VH: DVQLVESGGGLVQPGGSLRLSCAASGFTFSSFGMHWVRQAPGKGLEWVAYISSGSSPIYYVDKLKGRFTISRDNAKNSLYLQMNSLRAEDTAVYYCARAGYAVRNALDYWGQGTLVTVSS
# VL: EIVMTQSPPTLSLSPGERVTLSCKSSQSLLNVGNQKNYLAWYQQKPGQAPRLLIYGASTRESGIPARFSGSGSGTDFTLTISSLQPEDFAVYYCQNDLFYPLTFGGGTKVEIK
# notes: humanized IgG; constant regions not specified
# B4: 413H9F8-cp2-MG-DL (antibody, V domains shown)
# VH: B3 VH
# VL: B3 VL
# B5: chimeric 357B8F8 (antibody, human IgG1, kappa, V domains shown)
# VH: QVQLKESGPGLVAPSQSLSITCTVSGFSLTSYGVHWVRQPPGKGLEWLGVIWPGGNTNYNSALMSRLSISKDNSKSQVFLKMNSLQTDDTAMYYCARDRRLAMDYWGQGTSVTVSS
# VL: DIVMTQSPSSLTVTAGEKVTMTCKSSQSLLNSGNQKNYLTWYQQKPGQPPKLLIYWASTRESGVPDRFTGSGSGTDFTLTISILQAEDLAVYYCQNDYSYPFTFGSGTKLEIKR
# notes: chimeric human IgG1
# What was measured:
# [1] = molecular target: T1, human Claudin 18.2 (CLDN18.2) (human, UniProt P56856-2 1-261); assay: FACS on CHO-CLDN18.2 cells
# T1 construct: whole, on cells; recombinantly expressed on CHO, HEK293, NCI-N87, NUGC4 or PANC-1 cells; also called CHO-CLDN18.2
# [2] = molecular target: T2, CLDN18.2 endogenously expressed on SNU601 gastric cancer cells (UniProt P56856-2 1-261); assay: FACS on SNU601 cells
# T2 construct: whole, on cells
# [3] = molecular target: T1, human Claudin 18.2 (CLDN18.2); assay: FACS on CHO-18.2 cells @30 ug/ml
# [4] = molecular target: T1, human Claudin 18.2 (CLDN18.2); assay: cell-based or functional assay
# [5] = molecular target: T1, human Claudin 18.2 (CLDN18.2); assay: cell-based or functional assay; remark: listed apart in the source
# [6] = molecular target: T1, human Claudin 18.2 (CLDN18.2); assay: cell-based or functional assay; remark: listed apart in the source
# [7] = molecular target: T1, human Claudin 18.2 (CLDN18.2); assay: cell-based or functional assay; remark: listed apart in the source
# [8] = molecular target: T1, human Claudin 18.2 (CLDN18.2); assay: cell-based or functional assay; remark: listed apart in the source
# [9] = molecular target: T1, human Claudin 18.2 (CLDN18.2); assay: FACS on CHO-CLDN18.2 cells; remark: listed apart in the source
# [10] = molecular target: T3, CLDN18.2 endogenously expressed on SNU620 gastric cancer cells (UniProt P56856-2 1-261, limits assumed); assay: FACS on SNU620 cells
# T3 construct: whole, on cells; also called SU620
binder,measurement,setting,value
B1,binding result,[1],binds
B2,binding result,[2],binds
same,binding result,[3],binds
B3,"% ADCC @ 6.67 nM, NCI-N87-CLDN18.2, FcR-TANK",[4],13.2%
same,"ADCC EC50, NCI-N87-CLDN18.2, FcR-TANK",[4],240 pM
same,"% specific cytotoxicity @ 6.67 nM, NUGC4-CLDN18.2, PBMC",[5],32%
same,"ADCC EC50, NUGC4-CLDN18.2, PBMC",[5],5300 pM
same,"ADCC EC50, CHO-CLDN18.2, FcR-TANK",[6],8 pM
same,"ADCC EC50, NUGC4-CLDN18.2, PBMC",[7],49.2 pM
same,"CDC EC50, human serum, CHO-CLDN18.2",[8],1130 pM
same,EC50,[9],1990 pM
B4,"ADCC EC50, CHO-CLDN18.2, FcR-TANK",[6],2.4 pM
same,"ADCC EC50, NUGC4-CLDN18.2, PBMC",[7],17.5 pM
B5,binding result,[10],no binding
